Laboratory results from the RNAGym collection of RNA variant scans (doi:10.1093/molbev/msab373).

B1: Azoarcus group I ribozyme (parent)
chain: GUGCCUUGCGCCGGGAAACCACGCAAGGGAUGGUGUCAAAUUCGGCGAAACCUAAGCGCCCGCCCGGGCGUAUGGCAACGCCGAGCCAAGCUUCGGCGCCUGCGCCGAUGAAGGUGUAGAGACUAGACGGCACCCACCUAAGGCAAACGCUAUGGUGAAGGCAUAGUCCAGGGAGUGGCGAAAGUCACACAAACCGG

Variants of: B1
Assay: reverse-splicing fitness (ratio to wild type); higher = more active; in vitro selection; Mg2+ level not given
How it was run: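 An in vitro group I ribozyme library with randomized positions was T7-transcribed and gel-purified. In triplicate, 10 pmol RNA in EPPS pH 7.5 was reacted with 50 pmoles of a 30-nt RNA substrate for 1 h at 37 °C across several added MgCl2 levels (1–48 mM), then stopped with EDTA. Products were reverse transcribed from a substrate-complementary primer, PCR-amplified and sequenced (HiSeq 4000). Fitness is a variant's read proportion after selection over that before, normalised to wild type.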

Variant	reverse-splicing fitness
C82U A120U A145U C169G U176C	0.00267
C82U A120U A145U C169G U176G	0.0013
C82U A120U A145U C169G U176A	0.00182
C82U A120U A145C C150U C169A U176C	0.00189
C82U A120U A145C C150U C169A U176G	0.00165
C82U A120U A145C C150U C169A U176A	0.00242
C82U A120U A145U C150U C169A U176G	0.0019
C82U A120U A145U C150U C169A U176A	0.00262
C82U A120U A145U C150U C169A U176C	0.00256
C82U A120U A145U U176G	0.013
C82U A120U A145U U176C	0.0847
C82U A120U A145U U176A	0.0411
C82U A120U A145U C150A C169U	0.0022
C82U A120U A145U C150A C169G	0.00199
C82U A120U A145U C150A C169A	0.00179
C82U A120U A145G C150G U176A	0.00711
C82U A120U A145G C150G U176G	0.00382
C82U A120U A145G C150G U176C	0.0113
C82U A120U A145G C150U C169U U176A	0.00396
C82U A120U A145G C150U C169U U176C	0.00389
C82U A120U A145G C150U C169U U176G	0.00198
C82U A120U A145C U176A	0.0354
C82U A120U A145C U176C	0.0503
C82U A120U A145C U176G	0.011

Variant	reverse-splicing fitness
C82U A120U A145G C150A C169U U176C	0.00329
C82U A120U A145G C150A C169U U176G	0.00199
C82U A120U A145G C150A C169U U176A	0.0038
C82U A120U A145G C150G C169G U176C	0.00499
C82U A120U A145G C150G C169G U176G	0.00346
C82U A120U A145G C150G C169G U176A	0.00758
C82U A120G C150U C169A U176G	0.00423
C82U A120G C150U C169A U176A	0.016
C82U A120G C150U C169A U176C	0.014
C82U A120U A145C C150G C169U U176C	0.00224
C82U A120U A145C C150G C169U U176A	0.00247
C82U A120U A145C C150G C169U U176G	0.00191
C82U A120G C150A U176C	0.0166
C82U A120G C150A U176G	0.00583
C82U A120G C150A U176A	0.0116
C82U A120U A145C C150G C169G U176A	0.00206
C82U A120U A145C C150G C169G U176C	0.0019
C82U A120U A145C C150G C169G U176G	0.00188
C82U A120U A145U C150U C169U U176A	0.0028
C82U A120U A145U C150U C169U U176C	0.00368
C82U A120U A145U C150U C169U U176G	0.00217
C82U A120U A145U C150U C169A	0.0024
C82U A120U A145U C150U C169G	0.00432
C82U A120U A145U C150U C169U	0.00476

Variant	reverse-splicing fitness
C82U A120G A145U C169U	0.0182
C82U A120G A145U C169G	0.0232
C82U A120G A145U C169A	0.017
C82U A120U A145C C150U C169U U176G	0.0015
C82U A120U A145C C150U C169U U176C	0.00187
C82U A120U A145C C150U C169U U176A	0.00232
C82U A120G C150G	0.00711
C82U A120G C150U	0.0161
C82U A120G C150A	0.00924
C82U A120G C150A C169G U176A	0.018
C82U A120G C150A C169G U176C	0.0214
C82U A120G C150A C169G U176G	0.00456
C82U A120G A145U C150U C169A U176C	0.0085
C82U A120G A145U C150U C169A U176G	0.00326
C82U A120G A145U C150U C169A U176A	0.0106
C82U A120G A145U C150U C169U	0.0143
C82U A120G A145U C150U C169A	0.014
C82U A120G A145U C150U C169G	0.0171
C82U A120G C169U U176C	0.0176
C82U A120G C169U U176A	0.0244
C82U A120G C169U U176G	0.0054
C82U A120G C150A C169A U176A	0.0174
C82U A120G C150A C169A U176C	0.0164
C82U A120G C150A C169A U176G	0.00477

Variant	reverse-splicing fitness
C82U A120U A145C C150A C169A	0.00144
C82U A120U A145C C150A C169G	0.00203
C82U A120U A145C C150A C169U	0.00232
C82U A120U A145C C150G U176A	0.0055
C82U A120U A145C C150G U176G	0.00242
C82U A120U A145C C150G U176C	0.00864
C82U A120G A145U U176A	0.0127
C82U A120G A145U U176C	0.0139
C82U A120G A145U U176G	0.00403
C82U A120U C150G C169U U176C	0.00349
C82U A120U C150G C169U U176A	0.00334
C82U A120U C150G C169U U176G	0.00244
C82U A120U	0.174
C82U A120U A145U C150G U176G	0.00253
C82U A120U A145U C150G U176C	0.0104
C82U A120U A145U C150G U176A	0.00548
C82U A120U A145U C150G C169U U176A	0.00257
C82U A120U A145U C150G C169U U176G	0.00186
C82U A120U A145U C150G C169U U176C	0.00297
C82U A120U A145G C169U U176C	0.00381
C82U A120U A145G C169U U176A	0.00293
C82U A120U A145G C169U U176G	0.00155
C82U A120G C150U C169U U176A	0.0237
C82U A120G C150U C169U U176G	0.00509

Variant	reverse-splicing fitness
C82U A120G C150U C169U U176C	0.0185
C82U A120U A145U C150U U176G	0.00848
C82U A120U A145U C150U U176A	0.0284
C82U A120U A145U C150U U176C	0.0465
C82U A120U A145C C150U U176C	0.0162
C82U A120U A145C C150U U176A	0.0114
C82U A120U A145C C150U U176G	0.00482
C82U A120U A145G C150G C169U U176C	0.00545
C82U A120U A145G C150G C169U U176A	0.00708
C82U A120U A145G C150G C169U U176G	0.00348
C82U A120U C150G C169G U176G	0.0022
C82U A120U C150G C169G U176A	0.00396
C82U A120U C150G C169G U176C	0.00212
C82U A120U C150G C169A U176C	0.003
C82U A120U C150G C169A U176A	0.00476
C82U A120U C150G C169A U176G	0.00234
C82U A120G C150U C169G U176G	0.00429
C82U A120G C150U C169G U176C	0.0189
C82U A120G C150U C169G U176A	0.015
C82U A120U C150G C169U	0.00386
C82U A120U C150G C169A	0.00679
C82U A120U C150G C169G	0.0055
C82U A120U C150U C169A U176A	0.00329
C82U A120U C150U C169A U176C	0.00192

Variant	reverse-splicing fitness
C82U A120U C150U C169A U176G	0.00208
C82U A120G C150G C169A U176C	0.00979
C82U A120G C150G C169A U176G	0.00547
C82U A120G C150G C169A U176A	0.00927
C82U A120U C150G U176C	0.00788
C82U A120U C150G U176G	0.0022
C82U A120U C150G U176A	0.00531
C82U A120G A145U C150G U176G	0.00275
C82U A120G A145U C150G U176A	0.00575
C82U A120G A145U C150G U176C	0.00808
C82U A120G A145U C169U U176A	0.0216
C82U A120G A145U C169U U176G	0.00326
C82U A120G A145U C169U U176C	0.0159
C82U A120G C150G C169U U176A	0.0125
C82U A120G C150G C169U U176G	0.00521
C82U A120G C150G C169U U176C	0.0118
C82U A120U A145U C150A U176G	0.00379
C82U A120U A145U C150A U176A	0.00666
C82U A120U A145U C150A U176C	0.0101
C82U A120U A145U C150G C169U	0.00244
C82U A120U A145U C150G C169A	0.00259
C82U A120U A145U C150G C169G	0.00248
C82U A120G C150G C169G	0.0077
C82U A120G C150G C169A	0.00923

Variant	reverse-splicing fitness
C82U A120G C150G C169U	0.00921
C82U A120G A145U C150U C169U U176G	0.00327
C82U A120G A145U C150U C169U U176C	0.0154
C82U A120G A145U C150U C169U U176A	0.022
C82U A120U A145C C150U C169G	0.00257
C82U A120U A145C C150U C169U	0.00331
C82U A120U A145C C150U C169A	0.00167
C82U A120G A145U C169G U176C	0.0138
C82U A120G A145U C169G U176G	0.00314
C82U A120G A145U C169G U176A	0.0111
C82U A120G A145U C150U	0.0176
C82U A120U A145G C169G U176A	0.00271
C82U A120U A145G C169G U176C	0.00346
C82U A120U A145G C169G U176G	0.00136
C82U A120U A145C C169A	0.00174
C82U A120U A145C C169G	0.00426
C82U A120U A145C C169U	0.00535
C82U A120U A145U C169U U176A	0.00227
C82U A120U A145U C169U U176C	0.00358
C82U A120U A145U C169U U176G	0.00161
C82U A120U A145C C150A C169U U176C	0.00195
C82U A120U A145C C150A C169U U176A	0.00218
C82U A120U A145C C150A C169U U176G	0.00151
